Paper PMC7550680

Target: NaV1.5 voltage-gated sodium channel α subunit (human SCN5A) (human) (UniProt Q14524)

Sodium channel β1 subunit carrying p.D103V (β1^D103V) (from UniProt Q07699-1 19-218) (natural protein)
positive shift of the voltage dependence of activation (V1/2) of the NaV1.5 sodium current with β1^D103V compared to β1^WT, whole cell patch clamp in transfected HEK-293 tsA201 cells: 3.37 mV
